Measurements published in PMC314469, “Protein Interaction Networks by Proteome Peptide Scanning” (PLoS Biology, 2004).

T1: Myo5 SH3 (MYO5_YEAST), Q04439
T1 chain: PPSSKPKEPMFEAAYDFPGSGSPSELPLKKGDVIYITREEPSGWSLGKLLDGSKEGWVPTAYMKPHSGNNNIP

T2: Rvs167 SH3 (RV167_YEAST), P39743
T2 chain: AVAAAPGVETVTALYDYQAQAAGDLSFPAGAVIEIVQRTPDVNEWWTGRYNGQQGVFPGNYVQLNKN

T3: Yhr016c SH3 (YSC84_YEAST), P32793
T3 chain: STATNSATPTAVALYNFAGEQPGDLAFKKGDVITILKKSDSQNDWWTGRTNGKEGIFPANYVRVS

T4: Boi2 SH3 (BOI2_YEAST), P39969
T4 chain: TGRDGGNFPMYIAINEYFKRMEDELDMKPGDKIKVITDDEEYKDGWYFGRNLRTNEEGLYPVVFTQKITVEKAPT

T5: Boi1 SH3 (BOI1_YEAST), P38041
T5 chain: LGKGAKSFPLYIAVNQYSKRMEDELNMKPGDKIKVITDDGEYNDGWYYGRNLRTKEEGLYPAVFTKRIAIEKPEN

T6: Yfr024 SH3 (LSB3_YEAST), P43603
T6 chain: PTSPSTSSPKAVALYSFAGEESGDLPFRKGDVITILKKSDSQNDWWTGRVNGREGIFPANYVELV


Columns and labels:
Experiment in all cases: SPOT array
[1] = biological target: T1, Myo5 SH3 (MYO5_YEAST), Q04439
[2] = biological target: T2, Rvs167 SH3 (RV167_YEAST), P39743
[3] = biological target: Sho1 SH3 (SHO1_YEAST), P40073
[4] = biological target: T3, Yhr016c SH3 (YSC84_YEAST), P32793
[5] = biological target: T4, Boi2 SH3 (BOI2_YEAST), P39969
[6] = biological target: T5, Boi1 SH3 (BOI1_YEAST), P38041
[7] = biological target: T6, Yfr024 SH3 (LSB3_YEAST), P43603

Sequence of Sho1 SH3 (SHO1_YEAST), P40073 (P40073 295-366): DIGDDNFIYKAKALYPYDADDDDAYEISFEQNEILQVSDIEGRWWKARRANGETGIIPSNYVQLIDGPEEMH

Binder | normalised SPOT signal, Boehringer light units (BLU); mean over the file's lines of this peptide [1] | normalised SPOT signal, Boehringer light units (BLU); mean over the file's lines of this peptide [2] | normalised SPOT signal, Boehringer light units (BLU); mean over the file's lines of this peptide [3] | normalised SPOT signal, Boehringer light units (BLU); mean over the file's lines of this peptide [4] | normalised SPOT signal, Boehringer light units (BLU); mean over the file's lines of this peptide [5] | normalised SPOT signal, Boehringer light units (BLU); mean over the file's lines of this peptide [6] | normalised SPOT signal, Boehringer light units (BLU); mean over the file's lines of this peptide [7]
SRSKRSKPLPPQLL [YJL095W 840-853] | 884 | 159 | 1740 | 10.4 | 10.6 | 685 | 411
STDHRGTPANPGRV [YER163C 43-56] | 257 | 23.6 | 60.8 | 30.5 | 0 | 26.3 | 6.2
SQKKKALPKQPKAS [YDR028C 871-884] | 493 | 186 | 3210 | 61.2 | 29.5 | 1060 | 307
SLGERFMPMAPEVY [YBR017C 618-631] | 140 | 32.8 | 3.7 | 7.3 | 51.3 | 49.7 | 15.8
SLLAKYQPSLPLVE [YDL179W 224-237] | 162 | 68.6 | 58.4 | 46.8 | 76.8 | 44.7 | 57.4
SLISKRNPSYPYGI [YEL050C 18-31] | 483 | 45.7 | 159 | 10.1 | 53.2 | 274 | 79.2
SSKIRPTPRKPSRM [YER118C 4-17] | 673 | 7920 | 144 | 697 | 58.4 | 982 | 9730
SMAMRPIPPLPTES [YNL152W 155-168] | 1330 | 32500 | 242 | 46600 | 49 | 37 | 50600
SLTLKTLPRVPTDS [YDL197C 461-474] | 212 | 163 | 31400 | 28.2 | 28.1 | 75.5 | 188
SRVTRKRPREPKST [YBL111C 334-347] | 829 | 162 | 95 | 49.5 | 40.5 | 794 | 674

Results, then the binder that gave them:

normalised SPOT signal, Boehringer light units (BLU); mean over the file's lines of this peptide [1] | normalised SPOT signal, Boehringer light units (BLU); mean over the file's lines of this peptide [2] | normalised SPOT signal, Boehringer light units (BLU); mean over the file's lines of this peptide [3] | normalised SPOT signal, Boehringer light units (BLU); mean over the file's lines of this peptide [4] | normalised SPOT signal, Boehringer light units (BLU); mean over the file's lines of this peptide [5] | normalised SPOT signal, Boehringer light units (BLU); mean over the file's lines of this peptide [6] | normalised SPOT signal, Boehringer light units (BLU); mean over the file's lines of this peptide [7] | Binder
215 | 232 | 25.7 | 14.1 | 67.9 | 60.2 | 161 | SLKNRDGPITPSTI [YPR128C 112-125]
85.4 | 41.8 | 33.4 | 8.7 | 25.6 | 170 | 1 | SLIPKIEPAEPTYS [YNL224C 454-467]
418 | 176 | 30.7 | 39.2 | 50.5 | 332 | 1380 | SSVSKLKPSLPNKL [YPL242C 73-86]
510 | 371 | 89.1 | 171 | 110 | 1110 | 824 | SMDSKRKPSPPSQR [YPL141C 758-771]
161 | 89.5 | 36.9 | 49.4 | 6.1 | 238 | 212 | SNFKKRDPGLPDFQ [YPL083C 302-315]
69.2 | 104 | 94.1 | 23.3 | 0 | 208 | 99.8 | SRYLKDHPNLPTPE [YOR353C 203-216]
